Measurements from patent US20260250411A1 (ALTRUBIO, published 2026).

Experiments:
[1] = biological target: T1, human PSGL-1 (extracellular domain) recombinant protein (SinoBiological, 13863-H08H) (human, UniProt Q14242 42-320); test: ELISA, plate coated with recombinant PSGL-1 at high density (0.5 µg/mL), FIG. 3A
T1 construct: extracellular domain; Bought protein; also called recombinant PSGL-1; hPSGL-1 extracellular domain antigen
T1 sequence (looked up): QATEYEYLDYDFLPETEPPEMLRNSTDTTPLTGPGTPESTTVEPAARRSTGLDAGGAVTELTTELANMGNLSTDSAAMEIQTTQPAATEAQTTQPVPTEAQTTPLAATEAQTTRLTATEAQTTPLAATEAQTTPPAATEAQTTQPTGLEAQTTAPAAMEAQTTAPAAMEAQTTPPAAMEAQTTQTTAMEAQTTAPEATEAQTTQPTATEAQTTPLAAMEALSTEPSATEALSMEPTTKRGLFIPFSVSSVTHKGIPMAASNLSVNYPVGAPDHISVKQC
Description: (§1) 96-well NUNC-Immuno plates (Thermo Fisher, Cat #442404) were coated with 100 μL per well of 0.5, 0.05, or 0.03 pg/mL human PSGL-1 (extracellular domain) recombinant protein (SinoBiological, 13863-H08H) overnight at 4° C. Plates were then washed with Wash Buffer (1×PBS with 0.05% Tween 20, pH 7.4) and blocked with 0.5% (w/v) BSA-PBS for 60 min at room temperature on a plate shaker set to 300 rpm. After blocking, 100 μL of serial dilutions of 15A7H-IgM, 15A7H-IgG4, and controls at concentration range of 5000 pM-4.89 pM were added to the wells and incubated at room temperature for 1 hour. […] After 5 final washes using Wash Buffer, the plates were read out using TMB substrate (followed the instruction manual of BD OptEIA. Cat. 555214) by incubating the wells with […] each of freshly prepared TMB Working Solution for 5 min followed by the addition of sulfuric acid to stop the reaction. Finally, the data of absorbance at 450 nm (OD450 nm) were collected on an ELISA plate reader and analyzed with SoftMax using a 4-parameter logistic model.

[2] = biological target: T1, human PSGL-1 (extracellular domain) …; test: ELISA, plate coated with recombinant PSGL-1 at lower density (0.05 pg/mL as printed), FIG. 3B
Description: as §1

[3] = biological target: T1, human PSGL-1 (extracellular domain) …; test: ELISA, plate coated with recombinant PSGL-1 at lower density (0.03 pg/mL as printed), FIG. 3C
Description: as §1

[4] = biological target: T2, human PSGL-1 on cells (Sp2/0-hPSGL-1 transfectants; activated human primary T cells) (human, UniProt Q14242 42-412); test: cell-based or functional assay
T2 sequence (looked up): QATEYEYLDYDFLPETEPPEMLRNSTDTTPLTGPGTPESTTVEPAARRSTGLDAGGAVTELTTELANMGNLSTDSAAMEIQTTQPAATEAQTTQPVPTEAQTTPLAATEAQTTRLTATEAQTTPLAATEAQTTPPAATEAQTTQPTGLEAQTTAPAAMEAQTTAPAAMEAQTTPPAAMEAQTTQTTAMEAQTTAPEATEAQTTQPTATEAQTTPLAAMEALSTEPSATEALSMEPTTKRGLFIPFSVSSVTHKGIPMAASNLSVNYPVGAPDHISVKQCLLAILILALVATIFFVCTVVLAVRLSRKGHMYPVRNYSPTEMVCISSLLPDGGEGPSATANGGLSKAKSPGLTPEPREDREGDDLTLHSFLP

B1: 15A7H-IgG4 (antibody, V domains shown)
VH: EVQLVESGGGLVQPGGSLRLSCAASGFTFSSFGMHWVRQAPGKGLEWVAYINGGSSTIFYANAVKGRFTISRDNAKNTLYLQMNSLRAEDTAVYYCARYASYGGGAMDYWGQGTLVTVSS
VL: DIQMTQSPSSLSASVGDRVTITCRSSQSIVHNDGNTYFEWYQQKPGKAPKLLIYKVSNRFSGVPSRFSGSGSGTHFTLTISSLQPEDFATYYCFQGSYVPLTFGQGTKVEIKR
notes: Bivalent IgG4 antibody described in WO 2012/174001; In some functional assays it was used with a mouse anti-human IgG Fc-gamma cross-linker (CL); also called anti-PSGL-1 bivalent mAb 15A7H; 15A7H-IgG4 + CL (when used with cross-linker)
EC50 [1]: 0.141 nM | EC50 [2]: 0.0974 nM | EC50 [3]: 0.12 nM

B2: 15A7H-IgM (antibody)
heavy: EVQLVESGGGLVQPGGSLRLSCAASGFTFSSFGMHWVRQAPGKGLEWVAYINGGSSTIFYANAVKGRFTISRDNAKNTLYLQMNSLRAEDTAVYYCARYASYGGGAMDYWGQGTLVTVSSGSASAPTLFPLVSCENSPSDTSSVAVGCLAQDFLPDSITFSWKYKNNSDISSTRGFPSVLRGGKYAATSQVLLPSKDVMQGTDEHVVCKVQHPNGNKEKNVPLPVIAELPPKVSVFVPPRDGFFGNPRKSKLICQATGFSPRQIQVSWLREGKQVGSGVTTDQVQAEAKESGPTTYKVTSTLTIKESDWLSQSMFTCRVDHRGLTFQQNASSMCVPDQDTAIRVFAIPPSFASIFLTKSTKLTCLVTDLTTYDSVTISWTRQNGEAVKTHTNISESHPNATFSAVGEASICEDDWNSGERFTCTVTHTDLPSPLKQTISRPKGVALHRPDVYLLPPAREQLNLRESATITCLVTGFSPADVFVQWMQRGQPLSPEKYVTSAPMPEPQAPGRYFAHSILTVSEEEWNTGETYTCVVAHEALPNRVTERTVDKSTGKPTLYNVSLVMSDTAGTCY
light: DIQMTQSPSSLSASVGDRVTITCRSSQSIVHNDGNTYFEWYQQKPGKAPKLLIYKVSNRFSGVPSRFSGSGSGTHFTLTISSLQPEDFATYYCFQGSYVPLTFGQGTKVEIKRTVAAPSVFIFPPSDEQLKSGTASVVCLLNNFYPREAKVQWKVDNALQSGNSQESVTEQDSKDSTYSLSSTLTLSKADYEKHKVYACEVTHQGLSSPVTKSFNRGEC
chain: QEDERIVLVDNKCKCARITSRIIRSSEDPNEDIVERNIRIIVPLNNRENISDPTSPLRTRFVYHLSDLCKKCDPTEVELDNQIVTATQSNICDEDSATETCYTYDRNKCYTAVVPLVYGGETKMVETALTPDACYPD
notes: also called 15A7H-IgM antibody; pentameric 15A7H-IgM
EC50 (nM) of apoptosis of activated T cells, Donor 1 [4]: 0.0177 nM | EC50 (nM) of apoptosis of activated T cells, Donor 2 [4]: 0.0152 nM | EC50 (nM) of apoptosis of activated T cells, Donor 3 [4]: 0.0096 nM | EC50 (µg/mL) of apoptosis of activated T cells, Donor 1 [4]: 0.0156 µg/mL | EC50 (µg/mL) of apoptosis of activated T cells, Donor 2 [4]: 0.0134 µg/mL | EC50 (µg/mL) of apoptosis of activated T cells, Donor 3 [4]: 0.00844 µg/mL | EC50 [1]: 0.0926 nM | EC50 [2]: 0.0459 nM | EC50 [3]: 0.0396 nM
